Reference: US20210163923A1

Target: Heat inactivated human AB serum labelled with Dylight 633 (human)
Assay: flow cytometry, IgG displayed on HEK293 cells, anti-Fc PE and Dylight 633 labelled human AB serum

Substance | % cells double positive for antibody and human serum binding [%]
Nivolumab displayed from pINT17-BSD (antibody) | 3.7
Vesencumab (antibody) | 12.3
